Reference: PMC5984089, “FBXW7 regulates DISC1 stability via the ubiquitin-proteosome system” (Molecular Psychiatry, 2017)
Where “and” joins values, the source holds several entries; their conditions need not be identical. Equal values may be shown once. Non-standard residues stand in square brackets, D forms with d. Residues, ends and D or L forms follow the SMILES beside them. No end group written: not given here. pT = C[C@@H](OP(=O)(O)O)[C@H](N)C(=O)O; pS = N[C@@H](COP(=O)(O)O)C(=O)O

How the values were obtained:
Skp1-FBXW7 complex = biological target: T1, Skp1-FBXW7 complex (Homo sapiens, UniProt Q969H0); experiment: Isothermal titration calorimetry of DISC1 peptides; format: binding; settings: for Kd: NANO ITC, 20 mM HEPES-Na (pH 7.4), 200 mM NaCl, 2 mM β-mercaptoethanol, mean ± s.d. from two to three independent measurements, read-out: dissociation constant (KD)
T1 construct: human FBXW7 (residues 263–707); His6 (N, cleaved yes); made in house; host or cells: Escherichia coli
T1 sequence (Q969H0 263-707, one chain of several): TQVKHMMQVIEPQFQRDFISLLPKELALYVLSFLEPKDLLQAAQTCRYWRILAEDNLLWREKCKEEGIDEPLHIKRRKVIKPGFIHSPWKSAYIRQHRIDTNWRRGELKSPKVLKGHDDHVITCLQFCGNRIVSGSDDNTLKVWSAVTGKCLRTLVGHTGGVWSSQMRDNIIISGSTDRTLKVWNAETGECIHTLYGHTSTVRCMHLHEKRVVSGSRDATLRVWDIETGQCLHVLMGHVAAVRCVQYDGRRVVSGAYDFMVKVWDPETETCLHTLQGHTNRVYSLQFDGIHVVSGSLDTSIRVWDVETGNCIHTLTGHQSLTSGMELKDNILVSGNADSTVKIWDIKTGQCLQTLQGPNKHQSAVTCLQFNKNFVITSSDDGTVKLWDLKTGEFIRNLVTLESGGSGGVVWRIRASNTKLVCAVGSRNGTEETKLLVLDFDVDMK
Description: Amino-terminal His6 tagged human FBXW7 (residues 263–707) and truncated Skp1 (Schulman et al., 2000) were co-expressed as a dicistronic message in Escherichia coli. The Skp1-FBXW7 complexes were purified by Ni2+-nitrilotriacetic acid (NTA) affinity chromatography followed by tobacco eth virus (TEV) protease cleavage of the His6 tag, and by anion exchange and gel filtration chromatography. For crystallization, the Skp1-FBXW7 complex was concentrated to 48 mg ml^–1 by ultrafiltration in 20 mM HEPES-Na (pH 7.4), 200 mM NaCl and 5 mM dithiothreitol (DTT). The DISC1 peptides were synthesized chemically and purified by HPLC.
All measurements were performed at 25 °C with a NANO ITC System (TA Instruments, New Castle, DE, USA). Protein samples were dialyzed against a solution containing 20 mM HEPES-Na (pH 7.4), 200 mM NaCl, and 2 mM β-mercaptoethanol. Typically, the concentrations of Skp1-FBXW7 and DISC1 peptides were […] and 1 mM, respectively. Titration data were analyzed using the TA Nano Analyze software, and the reported dissociation constants and their standard deviations were derived from two to three independent measurements.
To test whether phosphorylation of both the Thr198 and Ser202 sites in DISC1 is required for binding to FBXW7, we used isothermal titration calorimetry (ITC) to measure the binding affinity of various phosphorylated DISC1 peptides to the Skp1-FBXW7 complex (Supplementary Figure 5). […] Thus, specific interaction of DISC1 with the Skp1-FBXW7 complex requires simultaneous phosphorylation at Thr198 and Ser202 within the DISC1 PD motif.

[1] = biological target: purified protein complex containing 6His-FBXW7 and Skp1, Q969H0;P63208; experiment: peptide array overlay, anti-6His detection, densitometry; settings: read off a plot
[2] = system: purified protein complex containing 6His-FBXW7 and Skp1; experiment: Peptide array overlay with 6His-FBXW7/Skp1, substitution and truncation analysis; format: binding, human; settings: for binding potential for the FBXW7 complex vs dually-phosphorylated control sequence: densitometry of 6His probe
Excerpt: Peptide libraries were produced by automatic SPOT synthesis and synthesized on continuous cellulose membrane supports on Whatman 50 cellulose membranes using Fmoc-chemistry with the AutoSpot-Robot ASS 222 (Intavis Bioanalytical Instruments, Köln, Germany) as previously described.[17] Phosphorylation of peptide array peptides by constitutively active GSK3 (14-306, Millipore UK) was undertaken as previously described.[18] Phosphorylation was detected using a phospho-serine specific antibody (ab9332, Abcam, UK).
Figure 2 FBXW7 binds DISC1 via a PD motif to regulate turnover of DISC1. (a) HEK293 cells were transfected with FLAG-tagged FBXW7 or FLAG-tagged FBXW7 without the F-Box substrate-binding domain (Δ-F). Lysates were prepared and blotted for DISC1, c-MYC, FLAG and GAPDH. Relative levels of DISC1 expression were calculated (right hand panel). *=P<0.05 as measured by Student’s t-test, n=3 (b) HEK293 cells were transfected with FLAG-FBXW7 and GFP-DISC1 (upper panels) or FLAG-FBXW7 and V5-DISC1 (lower panels). FLAG was immunoprecipitated from cell lysates and blotted for FLAG, GFP and V5. (c) HEK293 cells were transfected with FLAG-DISC1. FLAG was immunoprecipitated from cell lysates and blotted for FLAG and endogenous FBXW7. (d) and (e) Peptide arrays of sequences containing the DISC1 PD were overlayed with a purified protein complex containing 6His-FBXW7 and Skp1. Arrays were then probed for His tag. (f) Sequences of known FBXW7 substrates contain a PD that is also present in DISC1.
Figure 3 Substitution analysis pinpoints novel binding motifs for FBXW7. (a) Peptide array grids containing substitution of residues within the core binding motif domain ^197PTPPGSH^202 (with a range of native and non-native residues) were overlaid with a purified protein complex containing 6His-FBXW7 and Skp1. mD and mE are N-methyl aspartic acid and N-methyl glutamic acids respectively. (d) and (e) are the D-forms of aspartic acid and glutamic acid. (b) Arrays were then probed for 6His and spots that were over 200% of the control identified by densitometry.

DISC1, HEK293 cells = experiment: Endogenous DISC1 protein level in HEK293 cells, western blot; format: cell-based, human; settings: cycloheximide 50 μg ml^–1, Figure 1a, n=3
Description: HEK293 cells were sourced from ATCC (CRL-1573) and cultured as described in the manufacturer’s protocol. DMEM (SIGMA) supplemented with 10% fetal bovine serum, 2 mM L-glutamine, […] penicillin-streptomycin at 37 °C in a humidified atmosphere of 5% CO2. The cells were passaged at about 80% confluency. Cells were transfected with plasmid DNA using polyfect transfection reagent (Qiagen) according to the manufacturer’s instructions. HEK293 cells were treated with the pharmacological agents cycloheximide (C7698) and MG132 (M7449) (Sigma-Aldrich) or DISC1 disruptor peptides (custom synthesized by Severn Biotech) as described in the text.
Briefly, detergent-soluble proteins were isolated from cells by disruption in lysis buffer 20 mM Tris-HCl (pH 7.5), 150 mM NaCl, 1 mM Na2EDTA, 1 mM EGTA, 1% triton, 2.5 mM sodium pyrophosphate, 1 mM β-glycerophosphate, 1 mM Na3VO4, 1 μg ml^–1 leupeptin, 10 mM DTT with Roche protease inhibitor, phosSTOP (Roche, 04906837001). Detergent-insoluble proteins were removed by centrifugation at 10 000 g for 10 min, and the soluble fraction was retained. Cell lysates were adjusted to equal protein amount (1 μg μl^–1) using cell lysis buffer. Cell lysates normalized for the protein concentration were incubated with mouse IgG (Millipore, 12487) Protein A agarose beads for 2 h at 4 °C. […] The complexes were analyzed on SDS PAGE. […]

[3] = biological target: Skp1-FBXW7 complex (human FBXW7 residues 263-707 with truncated Skp1, His6 tag cleaved) (UniProt Q969H0); experiment: ITC; 25 °C, NANO ITC System; 20 mM HEPES-Na (pH 7.4), 200 mM NaCl, 2 mM β-mercaptoethanol; Skp1-FBXW7 and DISC1 peptides typically 50 mM and 1 mM (so in the source); two to three independent measurements
[4] = biological target: T2, human FBXW7 (residues 263-707) (human, UniProt Q969H0 263-707); experiment: crystal structure; Skp1-FBXW7 mixed with a twofold molar excess of the DISC1 peptide; crystallised from 100 mM HEPES-Na (pH 7.4), 1.2 M Li2SO4, hanging drop, 4 °C; one complex in the asymmetric unit; settings: both partners purified
T2 construct: human FBXW7, residues 263-707; The FBXW7 chain of m1, written alone for the pairs inside the crystal structure; also called Fbw7; source: E. coli, co-expressed with truncated Skp1, purified as the complex; not shown: His6, N-terminal, cleaved
T2 sequence (Q969H0 263-707): as the sequence (Q969H0 263-707, one chain of several) above

[5] = ITC, 25 °C, pH 7.4, singly phosphorylated peptides

CC(C)[C@H](NC(=O)[C@H](CCC(=O)O)NC(=O)[C@@H]1CCCN1)C(=O)N1CCC[C@H]1C(=O)N1CCC[C@H]1C(=O)N[C@H](C(=O)N1CCC[C@H]1C(=O)N1CCC[C@H]1C(=O)NCC(=O)N[C@@H](COP(=O)(O)O)C(=O)N[C@@H](Cc1c[nH]cn1)C(=O)N[C@@H](CO)C(=O)N[C@@H](C)C(=O)N[C@@H](Cc1ccccc1)C(=O)N[C@H](C(=O)O)[C@@H](C)O)[C@@H](C)OP(=O)(O)O [DISC1^193–207/pT198/pS202] (H-PEVPP[pT]PPG[pS]HSAFT-OH)
Kd (Skp1-FBXW7 complex; ITC, 25 °C): 1 ± 0.2 µM

DISC1 peptide (residues 197-203, phosphorylated at Thr198 and Ser202) pT198E; pS202d (D-Asp)
percent of parent [1]: 210 % of control

DISC1^193–207/pS202: singly phosphorylated DISC1 peptide (PEVPPTPPG[pS]HSAFT)
measurable enthalpy signal / ITC signal (Skp1-FBXW7 complex; [5]): neither of the singly phosphorylated DISC1^193–207/pT198 and DISC1^193–207/pS202 peptides gave a measurable enthalpy signal | measurable enthalpy signal / ITC signal (Skp1-FBXW7 complex; ITC, 25 °C, pH 7.4; singly phosphorylated peptides; pS202)): No ITC signal

C[C@@H](OP(=O)(O)O)[C@H](NC(=O)[C@@H]1CCCN1)C(=O)N1CCC[C@H]1C(=O)N1CCC[C@H]1C(=O)NCC(=O)N[C@@H](COP(=O)(O)O)C(=O)N[C@@H](Cc1c[nH]cn1)C(=O)O [DISC1^197–203/pT198/pS202] (H-P[pT]PPG[pS]H-OH)
Kd (Skp1-FBXW7 complex; ITC, 25 °C): 17 ± 2 µM

PTPPGSH
association of FBXW7 complex / core binding sequence ([2]; phosphorylation and truncation analysis): minimum core binding sequence within the PD domain

DISC1 peptide (residues 197-203, phosphorylated at Thr198 and Ser202) pT198d (D-Asp); pS202mE (N-methyl Glu)
percent of parent [1]: 220 % of control and 190 % of control

GmDPPGmEH [I14, substituted DISC1 PD core peptide GmDPPGmEH]
binding potential for the FBXW7 complex vs dually-phosphorylated control sequence [2]: more than a twofold increase in binding potential

DISC1 peptide (residues 197-203, phosphorylated at Thr198 and Ser202) pT198E; pS202mD (N-methyl Asp)
percent of parent [1]: 230 % of control

DISC1^193–207/pT198: singly phosphorylated DISC1 peptide (PEVPP[pT]PPGSHSAFT)
measurable enthalpy signal / ITC signal (Skp1-FBXW7 complex; [5]): neither of the singly phosphorylated DISC1^193–207/pT198 and DISC1^193–207/pS202 peptides gave a measurable enthalpy signal | measurable enthalpy signal / ITC signal (Skp1-FBXW7 complex; ITC, 25 °C, pH 7.4; singly phosphorylated peptides; pT198)): No ITC signal

DISC1 peptide (residues 197-203, phosphorylated at Thr198 and Ser202) pT198e (D-Glu); pS202mE (N-methyl Glu)
percent of parent [1]: 210 % of control and 280 % of control

GmEPPGmEH [I11, substituted DISC1 PD core peptide GmEPPGmEH]
binding potential for the FBXW7 complex vs dually-phosphorylated control sequence [2]: more than a twofold increase in binding potential

DISC1 peptide (residues 197-203, phosphorylated at Thr198 and Ser202) P197G; pT198d (D-Asp); pS202mE (N-methyl Glu)
percent of parent [1]: 250 % of control

C[C@@H]1C[C@@H]([C@H](O)CC2CC(=O)NC(=O)C2)C(=O)[C@@H](C)C1 [cycloheximide, reference compound]
endogenous DISC1 level after cycloheximide (DISC1, HEK293 cells): rapidly decreased

P[pT]PPG[pS]H [DISC1 peptide (residues 197-203, phosphorylated at Thr198 and Ser202)]
Kd [3]: 17 µM

B1: DISC1 peptide (residues 193-207, phosphorylated at Thr198 and Ser202) (peptide, UniProt Q9NRI5 193-207, looked up)
peptide: PEVPP[pT]PPG[pS]HSAFT
notes: printed residues: Pro193, Glu194, Val195, Pro196, Pro197, Thr198, Pro199, Pro200, Gly201, Ser202, His203; also called 15-residue core peptide; source: synthetic peptide, purified by HPLC
Kd [3]: 1 µM | binding result [4]: binds
